This is an account of results in publication PMC8888459 (2022).

As a reminder, the Kd is the equilibrium constant for the complex coming apart. Usually koff stands for a measure of how fast the partners let go of each other.

B1: Yah1-GST fusion protein (natural protein)
chain: IAAHLLRTSPSLLTRTTTTTRFLPFSTSSFLNHGHLKKPKPGEELKITFILKDGSQKTYEVCEGETILDIAQGHNLDMEGACGGSCACSTCHVIVDPDYYDALPEPEDDENDMLDLAYGLTETSRLGCQIKMSKDIDGIRVALPQMTRNVNNNDFS
B2: Yah1 (untagged, holo) (natural protein)
chain: B1 chain
B3: NIA–Isu1 complex with S. cerevisiae Isu1 (complex)
chain 1: PAAGVKLDDNFSLETHTDIQAAAKAQASARASASGTTPDAVVASGSTAMSHAYQENTGFGTRPIYLDMQATTPTDPRVLDTMLKFYTGLYGNPHSNTHSYGWETNTAVENARAHVAKMINADPKEIIFTSGATESNNMVLKGVPRFYKKTKKHIITTRTEHKCVLEAARAMMKEGFEVTFLNVDDQGLIDLKELEDAIRPDTCLVSVMAVNNEIGVIQPIKEIGAICRKNKIYFHTDAAQAYGKIHIDVNEMNIDLLSISSHKIYGPKGIGAIYVRRRPRVRLEPLLSGGGQERGLRSGTLAPPLVAGFGEAARLMKKEFDNDQAHIKRLSDKLVKGLLSAEHTTLNGSPDHRYPGCVNVSFAYVEGESLLMALRDIALSSGSACTSASLEPSYVLHALGKDDALAHSSIRFGIGRFSTEEEVDYVVKAVSDRVKFLRELSPLWEMVQEGIDLNSIKWSGH
chain 2: MPGFTAPTRRQVLSLYKEFIKNANQFNNYNFREYFLSKTRTTFRKNMNQQDPKVLMNLFKEAKNDLGVLKRQSVISQMYTFDRLVVEPLQGRKH
chain 3: MSTIEERVKKIIGEQLGVKQEEVTNNASFVEDLGADSLDTVELVMALEEEFDTEIPDEEAEKITTVQAAIDYINGHQA
chain 4: SSITKRLYHPKVIEHYTHPRNVGSLDKKLPNVGTGLVGAPACGDVMRLQIKVNDSTGVIEDVKFKTFGCGSAIASSSYMTELVQGMTLDDAAKIKNTEIAKELSLPPVKLHCSMLAEDAIKAAIKDYKSKRNTPTMLS

Assay [1] addresses T1, NIA–Isu1 complex with C. thermophilum Isu1 (S. cerevisiae | E. coli (endogenous in …, UniProt P25374 37-497; Q6Q560 1-94; P0A6A8 1-78). As to the kind of experiment: BLI; KD1 of 2:1 heterogeneous ligand fit (43%). (In general: In BLI a coated tip is dipped into the sample, and binding shifts an interference pattern.)
For assay [2], the target named is T1, NIA–Isu1 complex with C. thermophilum …. Briefly: BLI; kd1 of 2:1 fit.
The target is the same in assay [3]. Briefly: BLI; kd2 of 2:1 fit, second site.
Assay [4] has the same target. Briefly: BLI; KD2 of 2:1 heterogeneous ligand fit (57%), second site.
The target is the same in assay [5]. Briefly: BLI; KD1 of 2:1 heterogeneous ligand fit (46%).
For assay [6] the target is unchanged. Briefly: BLI; KD2 of 2:1 heterogeneous ligand fit (54%), second site.
Assay [7] shares this target. As to the kind of experiment: BLI; kd2 of 2:1 fit, second site. The source holds these as a separate data set.
Assay [8] shares this target. As to the kind of experiment: BLI; kd1 of 2:1 fit. The source holds these as a separate data set.
Assay [9] has as its target T2, NIA complex (Nfs1–Isd11–ACPEc) (S. cerevisiae | E. coli (endogenous in …, UniProt P25374 37-497; Q6Q560 1-94; P0A6A8 1-78).
T2 chain 1: B3 chain 1
T2 chain 2: B3 chain 2
T2 chain 3: B3 chain 3
Briefly: BLI; kd1 of 2:1 fit.

In assay [10] the target is T2, NIA complex (Nfs1–Isd11–ACPEc). As to the kind of experiment: BLI; KD1 of 2:1 heterogeneous ligand fit (61%).
The target is the same in assay [11]. Briefly: BLI; kd2 of 2:1 fit, second site.
The target is the same in assay [12]. As to the kind of experiment: BLI; KD2 of 2:1 heterogeneous ligand fit (39%), second site.
Assay [13] concerns the target B1. As to the kind of experiment: BLI; anaerobic, reduced Yah1 (Fig. 6C); kd2 of 2:1 fit, second site.
Assay [14] has as its target B1. As to the kind of experiment: BLI; KD2 of 2:1 heterogeneous ligand fit (62%), second site.
For assay [15], the target named is B1. Briefly: BLI; kd1 of 2:1 fit.
In assay [16] the target is B1. As to the kind of experiment: BLI; anaerobic, reduced Yah1; kd1 of 2:1 fit.
Assay [17] deals with B1. Briefly: BLI; anaerobic, reduced Yah1 (Fig. 6C); kd1 of 2:1 fit.
In assay [18] the target is B1. As to the kind of experiment: BLI; anaerobic, reduced Yah1 (Fig. 6C); KD2 of 2:1 fit (55%), second site.
For assay [19], the target named is B1. Briefly: BLI; anaerobic, reduced Yah1; KD1 of 2:1 fit (37%).
For assay [20], the target named is B1. Briefly: BLI; anaerobic, reduced Yah1; KD2 of 2:1 fit (63%), second site.
Assay [21] concerns the target B1. Briefly: BLI; anaerobic, reduced Yah1 (Fig. 6C); KD1 of 2:1 fit (45%).
In assay [22] the target is B1. As to the kind of experiment: BLI; kd2 of 2:1 fit, second site.
For assay [23], the target named is B1. As to the kind of experiment: BLI; KD1 of 2:1 heterogeneous ligand fit (38%).
For assay [24], the target named is B1. As to the kind of experiment: BLI; anaerobic, reduced Yah1; kd2 of 2:1 fit, second site.

B1: the equilibrium dissociation constant (Kd) is 184 nM in assay [1], 800 nM in assay [4], 228 nM in assay [5] and 212 nM in [6]. For the same molecule, the koff came out at 0.00118 s⁻¹ in assay [2], 0.0403 s⁻¹ in assay [3], 0.109 s⁻¹ in assay [7] and 0.00167 s⁻¹ in [8].
Consider B2, for which the off-rate (koff) came out at 2.08e-07 s⁻¹ in assay [9] and 0.00156 s⁻¹ in assay [11]. For the same molecule, the Kd in [10] came to 0.307 nM; in assay [12] it was 544 nM.
Regarding B3, the koff amounted to 0.00777 s⁻¹ with Yah1-GST fusion protein [13]; 0.000977 s⁻¹ with Yah1-GST fusion protein [15]; 4.05e-07 s⁻¹ in the assay with Yah1-GST fusion protein [16]; 4.99e-07 s⁻¹ with Yah1-GST fusion protein [17]; 0.0375 s⁻¹ with Yah1-GST fusion protein [22]; 0.00421 s⁻¹ with Yah1-GST fusion protein [24]. The dissociation constant Kd turned out to be 660 nM with Yah1-GST fusion protein [14]; 19.2 nM with Yah1-GST fusion protein [18]; 0.0165 nM with Yah1-GST fusion protein [19]; 15.3 nM in the assay with Yah1-GST fusion protein [20]; 0.02 nM with Yah1-GST fusion protein [21]; 325 nM with Yah1-GST fusion protein [23].
